Test results as given in the supplement of paper PMC9170038.

These sequences were tested on MS2 coat protein (assay: apparent KD of MS2 coat protein, switch ON state; designed switch direction (-1 OFF switch, 1 ON switch): 1; higher = weaker reporter binding). Conditions: FMN input: 0 or 200 uM; Eterna round: R93 (includes R88 designs).
Summary of the method: (§1)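 Designed RNA switches were made by on-chip transcription from Illumina sequencing clusters and then titrated with SNAP-549-labelled MS2 coat protein. Twofold steps ran from 0.7 or 1.5 nM to 3 µM, each lasting 0.8–1.5 h early and 10–20 min late, in 100 mM Tris-HCl pH 7.5, 80 mM KCl, 4 mM MgCl2, without or with constant ligand. Apparent KD is the per-design median of normalised cluster binding-curve fits.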
In the case of “AAGAUACAUGAGGAUCACCCAUGUUUUGGUGGGUCAGGAUAUAAAAAGAAUGAGAGAAAGUUAGAAGGGACAAAGA [JR_SS001_Sub005]”, the “apparent KD of MS2 coat protein” value is reported as 201 nM. In the case of “AACUAACAUGAGGAUCACCCAUGUAUUCAAACAUGAGGAUAUAUAACACAUCAUCGACAGAUAGAAGGCAUAAAUA [JR_SS001_Sub1205]”, the “apparent KD of MS2 coat protein” value is reported as 89.6 nM. “AAAGACACGGUGCAGGAUAUAUUAAUAGUCACAUGAGGAUCACCCAUGUUCAUUUAUAUGAACGAGUAGAAGGGCGGUGAAAAAA [SameState2 Malc#8]” was tested, and the “apparent KD of MS2 coat protein” value was 174 nM. “ACGAGGAAGAGAGAGGAUAUCCAAAGGAAAACAUGAGGAUCACCCAUGUAAAAGGUAGGAAAUUGGGAGAAGGCUCAAGAGAGAG [salish99-ss2-069]” was tested, and the “apparent KD of MS2 coat protein” value was 32.4 nM. With “AUGGUCAAGUGUGAGGAUAUCCAGGCUCCCACAUGAGGAUCACCCAUGUUUUAAAGAGCGUAAAGGGAGAAGGUACGAACGCCAC [Isorvere]” the “apparent KD of MS2 coat protein” value was 15.4 nM. With “AAAGACAUAGUUCAGGAUAUGGUAAUAGUCACAUGAGGAUCACCCAUGUUCUUUUAUAAGAACGAUCAGAAGGGAGGUAAAAAAA [SameState2 Malc#14]” the “apparent KD of MS2 coat protein” value was 151 nM. In the case of “AGAAUAAAAAGAGAGGAUAUCCAUAAGAAAACAUGAGGAUCACCCAUGUGAAAGAUAAUAAGAUGGGAGAAGGCUCAAAAUAAGA [Topaz 46]”, the “apparent KD of MS2 coat protein” value is reported as 20.3 nM. For “AGAAUAAAAAGAGAGGAUAUCCAUAAGAAAACAUGAGGAUCACCCAUGUGAAAGAUAAUAAAAUGGGAGAAGGCUCAAAAUAAGA [Topaz 45]”, the “apparent KD of MS2 coat protein” value was 21 nM. In the case of “CACCCGUGUAUGAAGGAUAUGUAGACCCUGACAUGAGGAUCACCCAUGUAACUGUGGGUCCCAUCGCAGAAGGUCGAGACACGGG [Ribitite]”, the “apparent KD of MS2 coat protein” value is reported as 22.4 nM. For “AAAGACGUGGUGUAGGAUAUACUAAUAGUCACAUGAGGAUCACCCAUGUUCAUAUAUAUGAACGAGUAGAAGGACGACGAAAAAA [SameState2 Malc#2]”, the “apparent KD of MS2 coat protein” value was 70.4 nM. “GGAAGACAUGAGGAUCACCCAUGUGGGAAUAUGGGAGGAUAUACAAAGACGAGAGUCAGAGUAGAAGGCCUAGGCC [salish99-ss1-103(!)]” was tested, and the “apparent KD of MS2 coat protein” value was 54.3 nM. In the case of “AAAAGACAUGAGGAUCACCCAUGUGAAAACGUAGGAGGAUAUGUCGUGAAAAAAGACUUGACAGAAGGCCUGUGUC [SS1 - 34]”, the “apparent KD of MS2 coat protein” value is reported as 28.1 nM. For “GUAGACAUAGUUCAGGAUAUAGGAAUAGUCACAUGAGGAUCACCCAUGUGCAUUUAUAUGCGCACUUAGAAGGGAGGUAGUUAAC [Mat - Same state - Malcolm Mod - D121]”, the “apparent KD of MS2 coat protein” value was 26.3 nM. In the case of “GAAAAACAUGAGGAUCACCCAUGUGAAAAUAUGGAAGGAUAUACAAAGACGAAAGUCAAAGUAGAAGGUCUAAAAG [Mat - Same State 1 - Eli mod - D14]”, the “apparent KD of MS2 coat protein” value is reported as 15 nM. In the case of “AAUAAACAUGAGGAUCACCCAUGUAGAAACAUGGGAGGAUAUACAAAGACGAAAGUCAAAGUAGAAGGCCUAAAAA [Mat - Same State 1 - Mod - D168]”, the “apparent KD of MS2 coat protein” value is reported as 150 nM. For “GAAAAACAUGAGGAUCACCCAUGUAGAAAAAUGGGAGGAUAUACAAAGACGAAAGUCAAAGUAGAAGGCCUGAAAG [same state 77% mat/eli mod]”, the “apparent KD of MS2 coat protein” value was 24.8 nM. “AAAAGACAUGAGGAUCACCCAUGUCCUCGGACAUGAGGAUAUGUACAGACUUCGGUCUGUACAGAAGGCAUGAAAA [SS1 - 1064]” was tested, and the “apparent KD of MS2 coat protein” value was 52 nM. For “GUGGACAUAGUUCAGGAUAUAUGAAUAGUCACAUGAGGAUCACCCAUGUCCAUUUAUAUGGGCACAUAGAAGGGAGGUAGUUAAC [Mat - Same state - Malcolm Mod - D124]”, the “apparent KD of MS2 coat protein” value was 451 nM.

The sequences below were run on MS2 coat protein (assay: apparent KD of MS2 coat protein, switch OFF state (with FMN for OFF switches, without FMN for ON switches); designed switch direction (-1 OFF switch, 1 ON switch): 1; higher = weaker reporter binding). Conditions: FMN input: 0 or 200 uM; Eterna round: R93 (includes R88 designs).
Summary of the method: as §1
“AAGAUACAUGAGGAUCACCCAUGUUUUGGUGGGUCAGGAUAUAAAAAGAAUGAGAGAAAGUUAGAAGGGACAAAGA [JR_SS001_Sub005]” was tested, and the “apparent KD of MS2 coat protein” value was 309 nM. “AACUAACAUGAGGAUCACCCAUGUAUUCAAACAUGAGGAUAUAUAACACAUCAUCGACAGAUAGAAGGCAUAAAUA [JR_SS001_Sub1205]” was tested, and the “apparent KD of MS2 coat protein” value was 78.5 nM. For “AAAGACACGGUGCAGGAUAUAUUAAUAGUCACAUGAGGAUCACCCAUGUUCAUUUAUAUGAACGAGUAGAAGGGCGGUGAAAAAA [SameState2 Malc#8]”, the “apparent KD of MS2 coat protein” value was 110 nM. For “ACGAGGAAGAGAGAGGAUAUCCAAAGGAAAACAUGAGGAUCACCCAUGUAAAAGGUAGGAAAUUGGGAGAAGGCUCAAGAGAGAG [salish99-ss2-069]”, the “apparent KD of MS2 coat protein” value was 34.6 nM. For “AUGGUCAAGUGUGAGGAUAUCCAGGCUCCCACAUGAGGAUCACCCAUGUUUUAAAGAGCGUAAAGGGAGAAGGUACGAACGCCAC [Isorvere]”, the “apparent KD of MS2 coat protein” value was 21.9 nM. For “AAAGACAUAGUUCAGGAUAUGGUAAUAGUCACAUGAGGAUCACCCAUGUUCUUUUAUAAGAACGAUCAGAAGGGAGGUAAAAAAA [SameState2 Malc#14]”, the “apparent KD of MS2 coat protein” value was 282 nM. With “AGAAUAAAAAGAGAGGAUAUCCAUAAGAAAACAUGAGGAUCACCCAUGUGAAAGAUAAUAAGAUGGGAGAAGGCUCAAAAUAAGA [Topaz 46]” the “apparent KD of MS2 coat protein” value was 49.5 nM. With “AGAAUAAAAAGAGAGGAUAUCCAUAAGAAAACAUGAGGAUCACCCAUGUGAAAGAUAAUAAAAUGGGAGAAGGCUCAAAAUAAGA [Topaz 45]” the “apparent KD of MS2 coat protein” value was 20.2 nM. “CACCCGUGUAUGAAGGAUAUGUAGACCCUGACAUGAGGAUCACCCAUGUAACUGUGGGUCCCAUCGCAGAAGGUCGAGACACGGG [Ribitite]” was tested, and the “apparent KD of MS2 coat protein” value was 180 nM. With “AAAGACGUGGUGUAGGAUAUACUAAUAGUCACAUGAGGAUCACCCAUGUUCAUAUAUAUGAACGAGUAGAAGGACGACGAAAAAA [SameState2 Malc#2]” the “apparent KD of MS2 coat protein” value was 95.8 nM. With “GGAAGACAUGAGGAUCACCCAUGUGGGAAUAUGGGAGGAUAUACAAAGACGAGAGUCAGAGUAGAAGGCCUAGGCC [salish99-ss1-103(!)]” the “apparent KD of MS2 coat protein” value was 126 nM. With “AAAAGACAUGAGGAUCACCCAUGUGAAAACGUAGGAGGAUAUGUCGUGAAAAAAGACUUGACAGAAGGCCUGUGUC [SS1 - 34]” the “apparent KD of MS2 coat protein” value was 63.5 nM. “GUAGACAUAGUUCAGGAUAUAGGAAUAGUCACAUGAGGAUCACCCAUGUGCAUUUAUAUGCGCACUUAGAAGGGAGGUAGUUAAC [Mat - Same state - Malcolm Mod - D121]” was tested, and the “apparent KD of MS2 coat protein” value was 25 nM. For “GAAAAACAUGAGGAUCACCCAUGUGAAAAUAUGGAAGGAUAUACAAAGACGAAAGUCAAAGUAGAAGGUCUAAAAG [Mat - Same State 1 - Eli mod - D14]”, the “apparent KD of MS2 coat protein” value was 22.5 nM. With “AAUAAACAUGAGGAUCACCCAUGUAGAAACAUGGGAGGAUAUACAAAGACGAAAGUCAAAGUAGAAGGCCUAAAAA [Mat - Same State 1 - Mod - D168]” the “apparent KD of MS2 coat protein” value was 329 nM. “GAAAAACAUGAGGAUCACCCAUGUAGAAAAAUGGGAGGAUAUACAAAGACGAAAGUCAAAGUAGAAGGCCUGAAAG [same state 77% mat/eli mod]” was tested, and the “apparent KD of MS2 coat protein” value was 74.4 nM. In the case of “AAAAGACAUGAGGAUCACCCAUGUCCUCGGACAUGAGGAUAUGUACAGACUUCGGUCUGUACAGAAGGCAUGAAAA [SS1 - 1064]”, the “apparent KD of MS2 coat protein” value is reported as 233 nM. With “GUGGACAUAGUUCAGGAUAUAUGAAUAGUCACAUGAGGAUCACCCAUGUCCAUUUAUAUGGGCACAUAGAAGGGAGGUAGUUAAC [Mat - Same state - Malcolm Mod - D124]” the “apparent KD of MS2 coat protein” value was 744 nM.
